Source: US5472938A, “Pharmaceutical depot compositions containing hirudin” (Ciba-Geigy Corporation, priority 1993, dated 1995)

Test: Storage of hirudin in water, chromatographic analysis (Mono Q / ProPac)
Assay type: physicochemical
Conditions: FIG. 2
Description: MONO Q METHOD: The stability of hirudin can be analysed by FPLC ([…] protein liquid chromatography) using a Mono-Q column (10 μm particle size, 5.0×50 mm, purchased from Pharmacia). The method was developed by Ciba-Geigy, Basel. Solvent A is 50 mM HCOONH4 in H2 O pH 4.5, and solvent B is 50 mM HCOONH4 in H2 O , pH 3.5. The elution is performed at room temperature (22° C.) using a flow rate of 1.4 ml/min. The binary elution for the first 5 min is at constant flow of 20% B, followed by a linear gradient from 20% B to 75% B over 10 minutes, and 2 minutes at 100% B after which the column is equilibrated for 2 min at the starting conditions of 20% B.
PROPAC METHOD: A recently published method for hirudin analysis can also be used [Tuong, A., Maftouh, M., Ponthus, C., Whitechurch, O., Roitsch, C., and Picard, C. (1992) "Characterisation of the Deamidated Forms of Recombinant Hirudin" Biochemistry 31, 8291-8299]. In this method a ProPac PAl anion-exchange column (250×4 mm i.d.) from Dionex is used. Solvent A is 20 mM Tris-HCl, pH 7.0 and solvent B is 0.5M NaCL in A. Isocrastic elution for 5 min at 28% is followed by a linear gradient from 28%B to 54%B over 60 min at a flow rate of 1.3 ml/mim.
The two peaks which elute in the front of the main peak (FIG. 1) are referred to as Q4 and Q5 peaks, respectively. […] The exact nature of the products which produce those extra peaks is not known.

Substance: hirudin
- change of chromatogram on storage in water: increase of the Q4 and Q5 peaks with time
